In assay [1] the target is T1, Aβ 20-42 globulomer (UniProt P05067 691-713).
T1 construct: domain: Aβ 20-42 globulomer
T1 peptide (looked up): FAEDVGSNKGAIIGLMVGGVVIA
Nature of the assay: Aβ 20-42 globulomer ELISA, antigen on plate; parent antibody. The method, then:
(§1) ELISA assays were performed to screen for antibodies that bind a desired target antigen as follows. Aβ 20-42 globulomer and PBS at 37° C. was pre-warmed for 1 minute. High bind ELISA plates (Corning Costar #3369, Acton, Mass.) were coated with 100 μL/well of 41 µg/ml of Aβ 20-42 globulomer diluted in PBS overnight at 4° C. Plates were blocked with 320 μL/well of 100% superblock PBS buffer (Thermo Scientific, #37515) and incubated for 45 minutes at room temperature. Plates were washed three times after blocking with PBS containing 0.02% Tween 20.
(§2) Antibody or DVD-Igs were diluted to 2000 ng/mL, 1000 ng/mL, 200 ng/mL, 40 ng/mL, 8 ng/mL, 1.6 ng/mL and 0.32 ng/mL in 10% superblock in PBS. One hundred microliters of antibody or DVD-Ig preparations was added to the plate in triplicate and incubated for 2 hours at room temperature. Wells were washed five times with PBS containing 0.02% Tween 20.
(§3) One hundred microliters of TMB solution (Invitrogen-Zymed; #00-2023) was added to each well and incubated for 5 minutes. The reaction was stopped by the addition of 100 μL 2N sulphuric acid. Plates were read spectrophotometrically at a wavelength of 450 nm.
For orientation: An ELISA detects its analyte on a solid surface through an enzyme-linked reagent.

The target of assay [2] is T2, Aβ1-42 (UniProt P05067 672-713).
T2 construct: domain: Aβ1-42; Aβ 1-42 is a part of it; also called A beta
Nature of the assay: Aβ 1-42 ELISA, peptide on plate; parent antibody. The method, then: (§4) ELISA assays were performed to screen for antibodies that bind a desired target antigen as follows. Maxisorb NUNC Immuno plates were coated with 100 μL/well of 1 μg/ml of Aβ1-42 diluted in coating buffer overnight at 6° C. Plates were washed three times with PBS containing 0.02% Tween 20. Blocking solution was prepared by dissolving the blocking reagent for ELISA (Roche) in 100 mL water and then diluted further 1:10 prior to use. Plates were blocked by the addition of 265 μL/well blocking solution for 2 hours at room temperature. Plates were washed three times after blocking with PBS containing 0.02% Tween 20.
(§5) Antibody or DVD-Igs were diluted to 100 ng/μL in PBST+0.5% BSA and serially diluted 1:3. One hundred microliters of antibody or DVD-Ig preparations was added to the plate and incubated for 2 hour at room temperature. Wells were washed three times with PBS containing 0.02% Tween 20.
(§6) One hundred microliters of TMB solution was added to each well and incubated for 10 minutes. TMB solution was prepared by mixing 20 mL 100 mM natrium-acetate pH4.9 with 200 μL TMB solution (Roche #92817060) and 29.5 μL 3% H₂O₂. The reaction was stopped by the addition of 50 μL 1N sulphuric acid. Plates were read spectrophotometrically at a wavelength of 450 nm.

The target in assay [3] is T2, Aβ1-42. The assay is described as follows: Aβ 1-42 ELISA, peptide on plate; N-terminal VD. The method, then: as §4, §5, §6
Assay [4] addresses T3, IGF-I (UniProt P05019 49-118).
T3 construct: Bought reagent; also called IGF1; IGF-1
Nature of the assay: direct bind ELISA, antigen on plate; C-terminal VD. The method, then: (§7) Enzyme Linked Immunosorbent Assays to screen for antibodies that bind a desired target antigen were performed as follows. High bind ELISA plates (Corning Costar #3369, Acton, Mass.) were coated with 100 μL/well of 10 μg/ml of desired target antigen (R&D Systems, Minneapolis, Minn.) or desired target antigen extra-cellular domain/FC fusion protein (R&D Systems, Minneapolis, Minn.) or monoclonal mouse anti-polyHistidine antibody (R&D Systems # MAB050, Minneapolis, Minn.) in phosphate buffered saline (10×PBS, Abbott Bioresearch Center, Media Prep# MPS-073, Worcester, Mass.) overnight at 4° C. Plates were washed four times with PBS containing 0.02% Tween 20. Plates were blocked by the addition of 300 μL/well blocking solution (non-fat dry milk powder, various retail suppliers, diluted to 2% in PBS) for 1/2 hour at room temperature. Plates were washed four times after blocking with PBS containing 0.02% Tween 20.
(§8) One hundred microliters of antibody or DVD-Ig preparations diluted in blocking solution as described above was added to the desired target antigen plate or desired target antigen/FC fusion plate or the anti-polyHistidine antibody/His tagged desired target antigen plate prepared as described above and incubated for 1 hour at room temperature. Wells were washed four times with PBS containing 0.02% Tween 20.
(§9) One hundred microliters of 10 ng/mL goat anti-human IgG-FC specific HRP conjugated antibody (Southern Biotech #2040-05, Birmingham, Ala.) was added to each well of the desired target antigen plate or anti-polyHistidine antibody/Histidine tagged desired target antigen plate. Alternatively, one hundred microliters of 10 ng/mL goat anti-human IgG-kappa light chain specific HRP conjugated antibody (Southern Biotech #2060-05 Birmingham, Ala.) was added to each well of the desired target antigen/FC fusion plate and incubated for 1 hour at room temperature. Plates were washed 4 times with PBS containing 0.02% Tween 20.

Assay [5] deals with T4, IGF-II (UniProt P01344 25-91).
T4 construct: Bought reagent; also called IGF2; IGF-2
The assay is described as follows: direct bind ELISA, antigen on plate; C-terminal VD. The method, then:
as §7, §8, §9

Assay [6] concerns the target T2, Aβ1-42. The assay is described as follows: Aβ 1-42 ELISA, peptide on plate; C-terminal VD. The method, then:
as §4, §5, §6

Assay [7] addresses T1, Aβ 20-42 globulomer. Nature of the assay: Aβ 20-42 globulomer ELISA, antigen on plate; N-terminal VD. The method, then: as §1, §2, §3
In assay [8] the target is T1, Aβ 20-42 globulomer. Nature of the assay: Aβ 20-42 globulomer ELISA, antigen on plate; C-terminal VD. The method, then:
as §1, §2, §3

Assay [9] concerns the target T5, Recombinant Human IL-1β (human, UniProt P01584 117-269).
T5 construct: Bought reagent; also called IL-1B
Nature of the assay: direct bind ELISA, antigen on plate; C-terminal VD. The method, then:
as §7, §8, §9

The target in assay [10] is T5, Recombinant Human IL-1β. The assay is described as follows: cell-based or functional assay.
Assay [11] concerns the target T5, Recombinant Human IL-1β. The assay is described as follows: direct bind ELISA, antigen on plate; N-terminal VD. The method, then:
as §7, §8, §9

In assay [12] the target is T4, IGF-II. Nature of the assay: direct bind ELISA, antigen on plate; parent antibody; second of the two numbers, IGF2. The method, then:
as §7
(§10) One hundred microliters of antibody or DVD-Ig preparations diluted in blocking solution as described above was added to the desired target antigen plate or desired target antigen/FC fusion plate or the anti-polyHistidine antibody/His tagged desired target antigen plate prepared as described above and incubated for 1 hour at room temperature. Wells were washed four times with PBS containing 0.02% Tween 20. […]

Assay [13] concerns the target T3, IGF-I. Nature of the assay: direct bind ELISA, antigen on plate; parent antibody; first of the two numbers, IGF1. The method, then: as §7, §10

B1: AB044 (antibody, human IgG1, lambda, V domains shown)
VH: EVKLVESGGGLVKPGGSLRLSCAASGFTFSSYAMSWVRQAPGKGLEWVASIHNRGTIFYLDSVKGRFTISRDNVRNTLYLQMNSLRAEDTAVYYCTRGRSNSYAMDYWGQGTSVTVSS
VL: DVLVTQSPLSLPVTPGEPASISCRSTQTLVHRNGDTYLEWYLQKPGQSPQSLIYKVSNRFSGVPDRFSGSGSGTDFTLKISRVEAEDVGVYYCFQGSHVPYTFGQGTKLEIKR
notes: the light constant region is therefore doubtful
Turning to B1, the EC50 with Aβ 20-42 globulomer [1] is 0.319 nM.

B2: AB043 (antibody, human IgG1, kappa, V domains shown)
VH: EVQLLESGGGLVQPGGSLRLSCAASGFTFSNYGMSWVRQAPGKGLEWVASIRSGGGRTYYSDNVKGRFTISRDNSKNTLYLQMNSLRAEDTAVYYCVRYDHYSGSSDYWGQGTLVTVSS
VL: DVVMTQSPLSLPVTPGEPASISCKSSQSLLDSDGKTYLNWLLQKPGQSPQRLIYLVSKLDSGVPDRFSGSGSGTDFTLKISRVEAEDVGVYYCWQGTHFPRTFGQGTKVEIKR
With B2, in the assay with Aβ1-42 [2], the EC50 was 0.012 nM.

B3: DVD229 (bispecific antibody, human IgG1, lambda)
heavy: not shown
light: DVVMTQSPLSLPVTPGEPASISCKSSQSLLDSDGKTYLNWLLQKPGQSPQRLIYLVSKLDSGVPDRFSGSGSGTDFTLKISRVEAEDVGVYYCWQGTHFPRTFGQGTKVEIKRTVAAPQSVLTQPPSVSAAPGQKVTISCSGSSSNIENNHVSWYQQLPGTAPKLLIYDNNKRPSGIPDRFSGSKSGTSATLGITGLQTGDEADYYCETWDTSLSAGRVFGGGTKLTVLGQPKAAPSVTLFPPSSEELQANKATLVCLISDFYPGAVTVAWKADSSPVKAGVETTTPSKQSNNKYAASSYLSLTPEQWKSHRSYSCQVTHEGSTVEKTVAPTECS
notes: DVD-Ig; also called VD229H/VD229L
Turning to B3, the figures for the EC50 in the assay with Aβ1-42 [3], with IGF-I [4] and with IGF-II [5] were 0.016 nM, 210 nM and 131 nM, respectively.

B4: DVD201 (bispecific antibody, human IgG1, kappa)
heavy: not shown
light: DVLVTQSPLSLPVTPGEPASISCRSTQTLVHRNGDTYLEWYLQKPGQSPQSLIYKVSNRFSGVPDRFSGSGSGTDFTLKISRVEAEDVGVYYCFQGSHVPYTFGQGTKLEIKRTVAAPDVVMTQSPLSLPVTPGEPASISCKSSQSLLDSDGKTYLNWLLQKPGQSPQRLIYLVSKLDSGVPDRFSGSGSGTDFTLKISRVEAEDVGVYYCWQGTHFPRTFGQGTKVEIKRTVAAPSVFIFPPSDEQLKSGTASVVCLLNNFYPREAKVQWKVDNALQSGNSQESVTEQDSKDSTYSLSSTLTLSKADYEKHKVYACEVTHQGLSSPVTKSFNRGEC
notes: DVD-Ig; also called VD201H/VD201L
On to B4, for which the EC50 amounted to 0.024 nM in the assay with Aβ1-42 [6] and 0.397 nM in the assay with Aβ 20-42 globulomer [7].

B5: DVD202 (bispecific antibody, human IgG1, kappa)
heavy: not shown
light: DVVMTQSPLSLPVTPGEPASISCKSSQSLLDSDGKTYLNWLLQKPGQSPQRLIYLVSKLDSGVPDRFSGSGSGTDFTLKISRVEAEDVGVYYCWQGTHFPRTFGQGTKVEIKRTVAAPDVLVTQSPLSLPVTPGEPASISCRSTQTLVHRNGDTYLEWYLQKPGQSPQSLIYKVSNRFSGVPDRFSGSGSGTDFTLKISRVEAEDVGVYYCFQGSHVPYTFGQGTKLEIKRTVAAPSVFIFPPSDEQLKSGTASVVCLLNNFYPREAKVQWKVDNALQSGNSQESVTEQDSKDSTYSLSSTLTLSKADYEKHKVYACEVTHQGLSSPVTKSFNRGEC
notes: DVD-Ig; also called VD202H/VD202L
For the molecule B5, the results for the EC50 in the assay with Aβ 20-42 globulomer [8] and with Aβ1-42 [3] were 0.178 nM and 0.017 nM, respectively.

B6: DVD225 (bispecific antibody, human IgG1, kappa)
heavy: not shown
light: DVVMTQSPLSLPVTPGEPASISCKSSQSLLDSDGKTYLNWLLQKPGQSPQRLIYLVSKLDSGVPDRFSGSGSGTDFTLKISRVEAEDVGVYYCWQGTHFPRTFGQGTKVEIKRTVAAPEIVLTQSPDFQSVTPKEKVTITCRASQSIGSSLHWYQQKPDQSPKLLIKYASQSFSGVPSRFSGSGSGTDFTLTINSLEAEDAAAYYCHQSSSLPFTFGPGTKVDIKRTVAAPSVFIFPPSDEQLKSGTASVVCLLNNFYPREAKVQWKVDNALQSGNSQESVTEQDSKDSTYSLSSTLTLSKADYEKHKVYACEVTHQGLSSPVTKSFNRGEC
notes: DVD-Ig; also called VD225H/VD225L
For B6, the figures for the EC50 with Aβ1-42 [3] and with Recombinant Human IL-1β [9] were 0.016 nM and 3940 nM, respectively. Further, the “C-Terminal VD IL-1β Neutralization Assay EC50” value in the assay with Recombinant Human IL-1β [10] amounted to 12.7 nM.

B7: DVD226 (bispecific antibody, human IgG1, kappa)
heavy: not shown
light: EIVLTQSPDFQSVTPKEKVTITCRASQSIGSSLHWYQQKPDQSPKLLIKYASQSFSGVPSRFSGSGSGTDFTLTINSLEAEDAAAYYCHQSSSLPFTFGPGTKVDIKRTVAAPDVVMTQSPLSLPVTPGEPASISCKSSQSLLDSDGKTYLNWLLQKPGQSPQRLIYLVSKLDSGVPDRFSGSGSGTDFTLKISRVEAEDVGVYYCWQGTHFPRTFGQGTKVEIKRTVAAPSVFIFPPSDEQLKSGTASVVCLLNNFYPREAKVQWKVDNALQSGNSQESVTEQDSKDSTYSLSSTLTLSKADYEKHKVYACEVTHQGLSSPVTKSFNRGEC
notes: DVD-Ig; also called VD226H/VD226L
With B7, the EC50 was 0.045 nM in the assay with Aβ1-42 [6] and 9.52 nM with Recombinant Human IL-1β [11]. Further, the “N-Terminal VD IL-1β Neutralization Assay EC50” value with Recombinant Human IL-1β [10] came to 0.028 nM.

B8: AB010 (antibody, human IgG1, lambda, V domains shown)
VH: QVQLVQSGAEVKKPGASVKVSCKASGYTFTSYDINWVRQATGQGLEWMGWMNPNSGNTGYAQKFQGRVTMTRNTSISTAYMELSSLRSEDTAVYYCARDPYYYYYGMDVWGQGTTVTVSS
VL: QSVLTQPPSVSAAPGQKVTISCSGSSSNIENNHVSWYQQLPGTAPKLLIYDNNKRPSGIPDRFSGSKSGTSATLGITGLQTGDEADYYCETWDTSLSAGRVFGGGTKLTVLG
notes: also called IGF1,2 parent antibody
With B8, the values for the EC50 with IGF-II [12] and with IGF-I [13] were 2.93 nM and 10.1 nM, respectively.

What is called EC50 is the concentration needed to bring the measured effect to its halfway point.

The values are drawn from US20150183867A1 (AbbVie / Abbott, published 2015).
